In publication PMC10578477, “Biochemical and genetic dissection of the RNA-binding surface of the FinO domain of Escherichia coli ProQ”:
Substitutions are numbered along the chain they refer to.

T1: ProQ NTD K54A K54A (Escherichia coli) (UniProt P45577)
T1 sequence: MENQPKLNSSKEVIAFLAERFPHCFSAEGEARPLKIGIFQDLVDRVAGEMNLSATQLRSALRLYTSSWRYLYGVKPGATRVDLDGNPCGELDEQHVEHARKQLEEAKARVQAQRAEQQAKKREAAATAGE

T2: ProQ NTD K35A K35A (Escherichia coli) (UniProt P45577)
T2 sequence: T1 sequence with K35A, A54K

T3: ProQ NTD R58A R58A (Escherichia coli) (UniProt P45577)
T3 sequence: T1 sequence with A54K, R58A

T4: ProQ NTD T65A T65A (Escherichia coli) (UniProt P45577)
T4 sequence: T1 sequence with A54K, T65A

T5: ProQ NTD R62A R62A (Escherichia coli) (UniProt P45577)
T5 sequence: T1 sequence with A54K, R62A

T6: ProQ NTD R32A R32A (Escherichia coli) (UniProt P45577)
T6 sequence: T1 sequence with R32A, A54K

T7: ProQ NTD Y70F Y70F (Escherichia coli) (UniProt P45577)
T7 sequence: T1 sequence with A54K, Y70F

T8: ProQ NTD D41A D41A (Escherichia coli) (UniProt P45577)
T8 sequence: T1 sequence with D41A, A54K

T9: ProQ NTD R69A R69A (Escherichia coli) (UniProt P45577)
T9 sequence: T1 sequence with A54K, R69A

T10: ProQ NTD R69A (Escherichia coli, UniProt P45577 1-130, R69A)
T10 sequence: T1 sequence with A54K, R69A

T11: ProQ NTD K35A (Escherichia coli, UniProt P45577 1-130, K35A)
T11 sequence: T1 sequence with K35A, A54K

T12: ProQ NTD T65A (Escherichia coli, UniProt P45577 1-130, T65A)
T12 sequence: T1 sequence with A54K, T65A

T13: ProQ NTD D41A (Escherichia coli, UniProt P45577 1-130, D41A)
T13 sequence: T1 sequence with D41A, A54K

T14: ProQ NTD R80K (Escherichia coli, UniProt P45577 1-130, R80K)
T14 sequence: T1 sequence with A54K, R80K

T15: ProQ NTD R80A (Escherichia coli, UniProt P45577 1-130, R80A)
T15 sequence: T1 sequence with A54K, R80A

T16: ProQ NTD R62A (Escherichia coli, UniProt P45577 1-130, R62A)
T16 sequence: T1 sequence with A54K, R62A

B1: cspE-mini-3'-6U (structured_RNA)
RNA: GGAAUUCGGAAGGCGCUUAAUCAGCGCCUUUUUU
B2: cspE-3' (structured_RNA)
RNA: GUAAGAUACGUCAGCAAGAAUUCAAAACCCGCUUAAUCAGCGGGUUUUUUUU
B3: cspE-mini (structured_RNA)
RNA: GGAAUUCGGAAGGCGCUUAAUCAGCGCCUUUUUUUU
B4: cspE-mini-5'-blunt (structured_RNA)
RNA: GGAAGGCGCUUAAUCAGCGCCUUUUUUUU

Legend:
[1] = biological target: T1, ProQ NTD K54A K54A (Escherichia coli); test: EMSA; settings: EMSA: 25 mM Tris pH 7.5, 150 mM NaCl, 5% glycerol, 1 mM MgCl2, 1 nM 32P-RNA, 30 min RT; microplates pretreated with 0.0025% BSA; 6% gel in 0.5x TBE at 4 C
[2] = biological target: T2, ProQ NTD K35A K35A (Escherichia coli); test: EMSA; settings: EMSA: 25 mM Tris pH 7.5, 150 mM NaCl, 5% glycerol, 1 mM MgCl2, 1 nM 32P-RNA, 30 min RT; microplates pretreated with 0.0025% BSA; 6% gel in 0.5x TBE at 4 C
[3] = biological target: T3, ProQ NTD R58A R58A (Escherichia coli); test: EMSA; settings: EMSA: 25 mM Tris pH 7.5, 150 mM NaCl, 5% glycerol, 1 mM MgCl2, 1 nM 32P-RNA, 30 min RT; microplates pretreated with 0.0025% BSA; 6% gel in 0.5x TBE at 4 C
[4] = biological target: T4, ProQ NTD T65A T65A (Escherichia coli); test: EMSA; settings: EMSA: 25 mM Tris pH 7.5, 150 mM NaCl, 5% glycerol, 1 mM MgCl2, 1 nM 32P-RNA, 30 min RT; microplates pretreated with 0.0025% BSA; 6% gel in 0.5x TBE at 4 C
[5] = biological target: T5, ProQ NTD R62A R62A (Escherichia coli); test: EMSA; settings: EMSA: 25 mM Tris pH 7.5, 150 mM NaCl, 5% glycerol, 1 mM MgCl2, 1 nM 32P-RNA, 30 min RT; microplates pretreated with 0.0025% BSA; 6% gel in 0.5x TBE at 4 C
[6] = biological target: T6, ProQ NTD R32A R32A (Escherichia coli); test: EMSA; settings: EMSA: 25 mM Tris pH 7.5, 150 mM NaCl, 5% glycerol, 1 mM MgCl2, 1 nM 32P-RNA, 30 min RT; microplates pretreated with 0.0025% BSA; 6% gel in 0.5x TBE at 4 C
[7] = biological target: T7, ProQ NTD Y70F Y70F (Escherichia coli); test: EMSA; settings: EMSA: 25 mM Tris pH 7.5, 150 mM NaCl, 5% glycerol, 1 mM MgCl2, 1 nM 32P-RNA, 30 min RT; microplates pretreated with 0.0025% BSA; 6% gel in 0.5x TBE at 4 C
[8] = biological target: T8, ProQ NTD D41A D41A (Escherichia coli); test: EMSA; settings: EMSA: 25 mM Tris pH 7.5, 150 mM NaCl, 5% glycerol, 1 mM MgCl2, 1 nM 32P-RNA, 30 min RT; microplates pretreated with 0.0025% BSA; 6% gel in 0.5x TBE at 4 C
[9] = biological target: T9, ProQ NTD R69A R69A (Escherichia coli); test: EMSA; settings: EMSA: 25 mM Tris pH 7.5, 150 mM NaCl, 5% glycerol, 1 mM MgCl2, 1 nM 32P-RNA, 30 min RT; microplates pretreated with 0.0025% BSA; 6% gel in 0.5x TBE at 4 C
ProQ NTD R69A [10] = biological target: T10, ProQ NTD R69A; test: EMSA; EMSA: 25 mM Tris pH 7.5, 150 mM NaCl, 5% glycerol, 1 mM MgCl2, 1 nM 32P-RNA, 30 min RT; microplates pretreated with 0.0025% BSA; 6% gel in 0.5x TBE at 4 C; settings: protein: recombinant; tags: His6-TEV removed, N-terminal Ser remains; label: 5'-32P; hairpin, 6 U tail (2 predicted single-stranded)
ProQ NTD K35A [11] = biological target: T11, ProQ NTD K35A; test: as above; settings: protein: recombinant, tags: His6-TEV removed, N-terminal Ser remains, label: 5'-32P
ProQ NTD K35A [12] = biological target: T11, ProQ NTD K35A; test: EMSA; max fraction bound similar to WT; EMSA: 25 mM Tris pH 7.5, 150 mM NaCl, 5% glycerol, 1 mM MgCl2, 1 nM 32P-RNA, 30 min RT; microplates pretreated with 0.0025% BSA; 6% gel in 0.5x TBE at 4 C; settings: protein: recombinant; tags: His6-TEV removed, N-terminal Ser remains; label: 5'-32P; terminator hairpin, 8 U 3' tail
ProQ NTD R69A [13] = biological target: T10, ProQ NTD R69A; test: EMSA; max fraction bound 88%; EMSA: 25 mM Tris pH 7.5, 150 mM NaCl, 5% glycerol, 1 mM MgCl2, 1 nM 32P-RNA, 30 min RT; microplates pretreated with 0.0025% BSA; 6% gel in 0.5x TBE at 4 C; settings: protein: recombinant; tags: His6-TEV removed, N-terminal Ser remains; label: 5'-32P; terminator hairpin, 8 U 3' tail
ProQ NTD T65A = biological target: T12, ProQ NTD T65A; test: EMSA; EMSA: 25 mM Tris pH 7.5, 150 mM NaCl, 5% glycerol, 1 mM MgCl2, 1 nM 32P-RNA, 30 min RT; microplates pretreated with 0.0025% BSA; 6% gel in 0.5x TBE at 4 C; settings: protein: recombinant; tags: His6-TEV removed, N-terminal Ser remains; label: 5'-32P; terminator hairpin, 8 U 3' tail
ProQ NTD D41A = biological target: T13, ProQ NTD D41A; test: as above; settings: protein: recombinant; tags: His6-TEV removed, N-terminal Ser remains; label: 5'-32P; terminator hairpin, 8 U 3' tail
ProQ NTD R80K = biological target: T14, ProQ NTD R80K; test: as above; settings: protein: recombinant; tags: His6-TEV removed, N-terminal Ser remains; label: 5'-32P; terminator hairpin, 8 U 3' tail
ProQ NTD R80A = biological target: T15, ProQ NTD R80A; test: as above; settings: protein: recombinant; tags: His6-TEV removed, N-terminal Ser remains; label: 5'-32P; terminator hairpin, 8 U 3' tail
ProQ NTD R62A = biological target: T16, ProQ NTD R62A; test: EMSA; max fraction bound just above 40%; EMSA: 25 mM Tris pH 7.5, 150 mM NaCl, 5% glycerol, 1 mM MgCl2, 1 nM 32P-RNA, 30 min RT; microplates pretreated with 0.0025% BSA; 6% gel in 0.5x TBE at 4 C; settings: protein: recombinant; tags: His6-TEV removed, N-terminal Ser remains; label: 5'-32P; terminator hairpin, 8 U 3' tail
ProQ NTD R69A [14] = biological target: T10, ProQ NTD R69A; test: EMSA; affinity not decreased vs R69A with cspE-3'; EMSA: 25 mM Tris pH 7.5, 150 mM NaCl, 5% glycerol, 1 mM MgCl2, 1 nM 32P-RNA, 30 min RT; microplates pretreated with 0.0025% BSA; 6% gel in 0.5x TBE at 4 C; settings: protein: recombinant; tags: His6-TEV removed, N-terminal Ser remains; label: 5'-32P; hairpin with 5' and 3' single-stranded regions
ProQ NTD R69A [15] = biological target: T10, ProQ NTD R69A; test: EMSA; EMSA: 25 mM Tris pH 7.5, 150 mM NaCl, 5% glycerol, 1 mM MgCl2, 1 nM 32P-RNA, 30 min RT; microplates pretreated with 0.0025% BSA; 6% gel in 0.5x TBE at 4 C; settings: protein: recombinant; tags: His6-TEV removed, N-terminal Ser remains; label: 5'-32P; hairpin, no 5' single strand
ProQ NTD K35A [16] = biological target: T11, ProQ NTD K35A; test: as above; settings: protein: recombinant; tags: His6-TEV removed, N-terminal Ser remains; label: 5'-32P; hairpin, no 5' single strand

Molecule	binding signal [1] [% max bound]	Kd [3] [nM]	binding signal (fold weaker Kd than WT) [4]	binding signal [5] [% max bound]	binding signal (fold weaker Kd than WT) [8]	also measured
malM-3'	30	> 1000	2	25	3	binding signal [2]: 70 % max bound; binding signal (fold weaker Kd than WT) [6]: 1; binding signal [7]: < 20 % max bound
SibA	–	> 1000	2	25	> 5	–
RybB	< 20	> 1000	1	–	2	binding signal [9]: < 40 % max bound
SibB	–	> 1000	4	–	> 5	Kd [2]: > 1000 nM; binding signal (fold weaker Kd than WT) [6]: 3
SibB-5U	–	–	–	–	–	binding signal [9]: > 30 % max bound
gapA-3'	< 20	> 1000	1	< 20	1	binding signal (fold weaker Kd than WT) [6]: 1
cspE81-3'	30	> 1000	2	< 20	2	binding signal [7]: < 20 % max bound
B1	–	–	–	–	–	binding signal (ProQ NTD R69A [10]): ~2.4 fold weaker Kd than R69A with cspE-mini; binding signal (ProQ NTD K35A [11]; hairpin, 6 U tail (2 predicted single-stranded)): ~1.4 fold weaker Kd than K35A with cspE-mini
B2	–	–	–	–	–	binding result (ProQ NTD K35A [12]): binds; Kd (ProQ NTD R69A [13]): 20 nM; binding signal (ProQ NTD T65A): ~4 fold weaker Kd than WT; binding signal (ProQ NTD D41A): ~3 fold weaker Kd than WT; binding result (ProQ NTD R80K): no binding; binding result (ProQ NTD R80A): no binding; binding signal (ProQ NTD R62A): ~4 fold weaker Kd than WT
B3	–	–	–	–	–	binding signal (ProQ NTD K35A [11]; hairpin with 5' and 3' single-stranded regions): ~2 fold weaker Kd than K35A with cspE-3'; binding result (ProQ NTD R69A [14]): binds
B4	–	–	–	–	–	binding result (ProQ NTD R69A [15]): no binding; binding result (ProQ NTD K35A [16]): no binding
